# From the RNAGym collection of RNA variant scans (doi:10.1073/pnas.2313332121)
# Fewer inactive variants are shown than the library holds.
# B1: TPR 5TU (parent)
# chain: GGAUCUUCUCGAUCUAACAAAAAAGACAAAUCUGCCACAAAGCUUGAGAGCAUCUUCGGAUGCAGAGGCGGCAGCCUUCGGUGGCGCGAUAGCGCCAACGUUCUCAACUAUGACACGCAAAACGCGUGCUCCGUUGAAUGGAGUUUAUCAUG
# Variants of: B1
# Assay: polymerase ribozyme fitness, log enrichment relative to wild type (log ratio); higher = more active; in vitro selection for triplet polymerase activity
# Procedure, shortened: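 Fitness is a logarithmic measure of how a genotype enriched relative to the wild type, with replicate averages weighted by inverse variance. The logarithm uses base 2, and enrichment came from Illumina sequencing of input and output libraries. Those libraries were PCR-built, transcribed mutants of each subunit of a heterodimeric triplet polymerase ribozyme, passed through one triplicate in vitro selection round that included frozen incubation at −7 °C, gel excision of extended constructs and streptavidin-bead capture. Genotypes were kept only if they had ≥10 input reads and ≥1 read per output.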
row,Variant,polymerase ribozyme fitness (log ratio)
1,C32U C96U C149U U151A,≤ -4.2
2,C32G C72G C87A A98G,≤ -4.2
3,C32U G68U C87G C99G,-4.11
4,A30G C38U G48A A66C G80U G84A C105G U109A C125A,≤ -4.2
5,A30U U56A G58C C132A A147U,≤ -4.2
6,U33C U82A,-2.77
7,U31G G92U U127G,-4.07
8,U33A G71U C79G C87G C95G,≤ -4.2
9,A30G C32G C85G U90C C93G U111G A113U,≤ -4.2
10,G34A G88C A115C A137G,≤ -4.2
11,C32G A73U A97U A120G G126A,≤ -4.2
12,U31A C75G C76G G83U C95U A115U,≤ -4.2
13,G34U A41U G84A U145C,-3.69
14,C32A A37G U61G G94U G124U,≤ -4.2
15,U31G C35A A47C G74U C87G A142C,≤ -4.2
16,U31A G100U,≤ -4.2
17,C32G A40U C95A,-3.93
18,A30C G74C C75A C76U G84U C87A C116G,≤ -4.2
19,A30C C32U C36U G70U U139A A142C,≤ -4.2
20,G34U A39U G48A U77G C79G C95U,≤ -4.2
21,U33G C43G A66G C93A C95U C118G,≤ -4.2

row,Variant,polymerase ribozyme fitness (log ratio)
1,A30G C57U,-2.81
2,U31A C93U A121U,-0.469
3,C32G A60G U144G,≤ -4.2
4,A30C C105U,≤ -4.2
5,U31G G50C G58U G88U,≤ -4.2
6,A30U G50C G71C A107G,≤ -4.2
7,A30U C93U,-3.92
8,U33G C96A,-1.72
9,G34C C69G C85G C105A,≤ -4.2
10,A30G C75G U82C C99A,≤ -4.2
11,C32G A40C G83C A110U U111C,≤ -4.2
12,C32G G50A C63U A91G C125G A147G,≤ -4.2
13,U33G C51U G80U C87A C96U A120G C129A U148G,≤ -4.2
14,U33C A91U,-3.67
15,G34U U55A A60C A73C C85U G136C U144A,≤ -4.2
16,G34U A47G G92U C99U A119C U146A,≤ -4.2
17,U33C C57U U61A G84A U101G G140U U145A,-4
18,U33G G48A U61A A121U A142G,-3.95
19,U33C C105G,-4.2
20,U31A C38G G86A G136A,-1.16
21,U33A C105U,-3.8

row,Variant,polymerase ribozyme fitness (log ratio)
1,U31A G86U C99U,-1.18
2,C32U C51G G70A C76U G83U G84A A98G U135G,≤ -4.2
3,U33C G141A,-2.97
4,U33G U53A G59C G84A G94A C125G U144C,≤ -4.2
5,G34U G48U G59C G67C G81C U134A G141U,≤ -4.2
6,U33C C87A,-3.95
7,A30G G71C U78A C95G A115C,≤ -4.2
8,C32U G68A G80C C96G A150U,≤ -4.2
9,G34A U77A G88A,≤ -4.2
10,A30C U56A C57G C87U U102G G143C,≤ -4.2
11,U31G C54G A60G C85A C99A,≤ -4.2
12,U31G A52G U55G A98U,-0.355
13,C32A A47C A122G A147C,≤ -4.2
14,C32G C72U,-4.2
15,A30C C93U,≤ -4.2
16,U33A A39U C54U G92A C96G A106U A137G A138C,≤ -4.2
17,U31C C32A C38U U56A G86A A98U,-4.14
18,U33G A47G G81A,-4
19,C32U U77A A89U C93U A106U,≤ -4.2
20,A30G A41U U55G C93U,≤ -4.2
21,C32G C72G C87G C114U U139A,≤ -4.2

row,Variant,polymerase ribozyme fitness (log ratio)
1,G34A G94U U101A,≤ -4.2
2,G34A G71A G88C A91C,≤ -4.2
3,C32G A110C,≤ -4.2
4,A30G A41G A52G,-2.03
5,C32G U53G A73C C131A A142G,≤ -4.2
6,U31A C103U,0.00968
7,U31A U78C U146C,-0.876
8,G34C C57U G80C C149U,≤ -4.2
9,C32G C57A G59A G74A C85U A120G U144C,-2.27
10,C32G A91G,≤ -4.2
11,A30U U56A C93U G141A,≤ -4.2
12,U31G A37C C95U U109G G143U G152C,≤ -4.2
13,C32U A60G,-1.63
14,C32U C38U G58C,-2.43
15,A30C C54U G70U C93A A120U U130A A138G,≤ -4.2
16,A30U G86A C96U A107U A142U C149G,≤ -4.2
17,A30C G46C A73G G80C G84A A91G,≤ -4.2
18,C32G G94A A97U,≤ -4.2
19,A30U U56G G58U A73G C85U C105U G141C,≤ -4.2
20,U31A A91G A106G G117A A119U U146C,-1.71
